Experimental data published in patent US12697350B2, “Methods and compositions for treating a premature termination codon-mediated disorder” (Tevard Biosciences, Inc., priority 2019, dated 2026).

What was measured:
EGFP-Q69X-TAA reporter [1] = assay: 100 nt 5′ leader sequence library with GlnTTA suppressor tRNA #163, EGFP-Q69X-TAA reporter, Flp-In-293 cells (FIGS. 30, 31, 32); type: cell-based, human
Source text: FIG. 27 is a schematic representation of the constructs used to test the impact of a 5′ leader sequence on the read-through of a premature termination codon (PTC) by a suppressor tRNA. Constructs contain (i) a 100 bp 5′ leader sequence derived from genomic DNA located upstream of tRNA genes that are highly expressed in HEK293 cells, (ii) a single copy of either the ArgTCA suppressor tRNA #115 (SEQ ID NO: 18) or the GlnTTA suppressor tRNA #163 (SEQ ID NO: 45), and (iii) an RNA polymerase III termination signal (“Term”).
FIG. 30 is a graph depicting the readthrough activity of the indicated GlnTTA suppressor tRNA expression constructs as measured by flow cytometry in Flp-In-293 cells at ~24 hours post transfection. […]
FIG. 31 is a graph depicting the readthrough activity of the indicated GlnTTA suppressor tRNA expression constructs as measured by flow cytometry in Flp-In-293 cells at ~24 hours post transfection. […]
The leader sequences in combination with the ArgTCA suppressor tRNA #115 (SEQ ID NO: 18) or the GlnTTA suppressor tRNA #163 (SEQ ID NO: 45) were tested for PTC readthrough activity by flow cytometry in cell lines co-transfected with an EGFP-R96X-TGA reporter (SEQ ID NO: 31) for ArgTCA constructs or an EGFP-Q69X-TAA reporter (SEQ ID NO: 175) for GlnTTA constructs.

EGFP-Q69X-TAA reporter [2] = assay: PTC readthrough of GlnTTA suppressor tRNA #002 versus nonsense suppression drugs, EGFP-Q69X-TAA reporter, Neuro-2a cells (FIG. 33); type: cell-based, mouse; conditions: versus ataluren, gentamicin, G418 (FIG. 33)
Procedure: FIG. 33 is a graph depicting the percentage of EGFP positive cells as measured by flow cytometry in three independent experiments at ~48 hours post transfection. Neuro-2a cells were transfected with an expression construct containing the EGFP-Q69X-TAA reporter (“EGFP-PTC”) (SEQ ID NO: 175) and either (i) including the GlnTTA suppressor tRNA #002 (SEQ ID NO: 36) at the indicated copy number on the same construct, or (ii) treated with ataluren at the indicated concentration, (iii) treated with gentamicin at the indication concentration, or (iv) treated with G418 at the indicated concentration. […]
(§1) The suppressor tRNAs were tested alongside nonsense suppression drugs translarna (ataluren), gentamicin, and G418 (geneticin). PTC readthrough activity was measured in Neuro-2a cells ~48 hours after transfection with an expression construct containing a CAG:NLS-EGFP (Q69X-TAA) reporter (as described in Example 4, SEQ ID NO: 175) and either (i) including a Gln suppressor tRNA (either #002, tRNA-Gln-TTG-1-1-TTA-SUP, SEQ ID NO: 36, or #196, tRNA-Gln-TTG-1-1-CTA-SUP, SEQ ID NO: 178, both as described in Example 4) at the indicated copy number on the same construct, or (ii) treated with ataluren, (iii) treated with gentamicin, or (iv) treated with G418. […] PTC readthrough activity was measured as the percentage of EGFP positive cells as measured by flow cytometry. […]

Neuro-2a cells = type: cell-based, mouse
Procedure: FIG. 23 is a graph depicting cell viability from FIG. 22 as measured by flow cytometry at ~48 hours post transfection. Neuro-2a cells were transfected with an expression construct containing the EGFP-R96X-TGA reporter (“GFP-PTC”) and either (i) transfected with an expression construct including the ArgTCA suppressor tRNA #115 (SEQ ID NO: 18) at the indicated copy number on the same construct, or (ii) treated with ataluren at the indicated concentration, (iii) treated with gentamicin at the indication concentration, or (iv) treated with G418 at the indicated concentration. For all experimental conditions, cell culture medium was replaced with fresh medium ~6 hour after transfection and the indicated drugs at the indicated concentrations were added at this point. A reporter containing wildtype GFP without a PTC (“WT-GFP”) was used as a control. “Mock” indicates mock transfected cells. “4×TCG” indicates cells transfected with an expression construct that contains four copies of a wild-type Arg-tRNA with a TCG anticodon and the EGFP-R96X-TGA reporter. Cell viability was assessed by flow cytometry using 7-Amino Actinomycin D (7-AAD), a membrane impermeant dye that is generally excluded from viable cells.
FIG. 34 is a graph depicting cell viability from FIG. 33 as measured by flow cytometry at ~48 hours post transfection. […] Cell viability was assessed by flow cytometry using 7-Amino Actinomycin D (7-AAD), a membrane impermeant dye that is generally excluded from viable cells.
FIG. 36 is a graph depicting cell viability from FIG. 35 as measured by flow cytometry at ~48 hours post transfection. […] Cell viability was assessed by flow cytometry using 7-Amino Actinomycin D (7-AAD), a membrane impermeant dye that is generally excluded from viable cells. […]

EGFP-Q69X-TAG reporter = assay: PTC readthrough of GlnCTA suppressor tRNA #196 versus nonsense suppression drugs, EGFP-Q69X-TAG reporter, Neuro-2a cells (FIG. 35); type: cell-based, mouse; conditions: versus ataluren, gentamicin, G418 (FIG. 35)
Procedure: FIG. 35 is a graph depicting the percentage of EGFP positive cells as measured by flow cytometry in three independent experiments at ~48 hours post transfection. Neuro-2a cells were transfected with an expression construct containing the EGFP-Q69X-TAG reporter (“EGFP-PTC”) (SEQ ID NO: 176) and either (i) including the GlncTA suppressor tRNA #196 (SEQ ID NO: 178) at the indicated copy number on the same construct, or (ii) treated with ataluren at the indicated concentration, (iii) treated with gentamicin at the indication concentration, or (iv) treated with G418 at the indicated concentration. […]
as §1

B1: tRNA-Gln-TTG-3-1-TTA-SUP (nucleic acid)
chain: GGCCCCATGGTGTAATGGTTAGCACTCTGGACTTTAAATCCAGCGATCCGAGTTCAAATCTCGGTGGGACCT
modifications: expressed or natural sequence
EGFP-Q69X-TAA reporter [1]
  readthrough activity when combined with the identified leader sequences: showed high readthrough activity

B2: tRNA-Gln-TTG-1-1-TTA-SUP (nucleic acid)
chain: GGTCCCATGGTGTAATGGTTAGCACTCTGGACTTTAAATCCAGCGATCCGAGTTCAAATCTCGGTGGGACCT
modifications: chemistry not fully specified
EGFP-Q69X-TAA reporter [2]
  PTC readthrough compared with nonsense suppression drugs: greater readthrough than any of the nonsense suppression drugs
Neuro-2a cells
  cell viability: not accompanied by a decrease in cell viability

B3: tRNA-Gln-CTG-1-1-CTA-SUP (nucleic acid)
chain: GGTCCCATGGTGTAATGGTTAGCACTCTGGACTCTAAATCCAGCGATCCGAGTTCAAATCTCGGTGGGACCT
modifications: chemistry not fully specified
EGFP-Q69X-TAG reporter
  PTC readthrough compared with nonsense suppression drugs: greater readthrough than any of the nonsense suppression drugs
Neuro-2a cells
  cell viability: not accompanied by a decrease in cell viability
